In the supplement of paper PMC10567573:
± gives the standard deviation.

Assay: protein stability index of a GFP-peptide fusion (GPS, HEK-293T) (PSI 1-6); higher = more stable
Conditions: c terminus: a fixed tail appended
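Further: 24-mer peptide tiles fused after GFP, lentivirally expressed, FACS-sorted into six equal bins by GFP/DsRed ratio, decoded by Illumina sequencing, PSI is the read-weighted mean bin number.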

| Sequence | protein stability index (treatment: DMSO) | protein stability index (treatment: MLN4924 1 uM, 8 h) |
| --- | --- | --- |
| LPLSPGVLSSTPDHSFSLELGSEV [ATF4] | 3.72 ± 0.21 | 3.95 ± 0.5 |
| PCSKAVMSQALKATFSGFKKEQRR [ETS2] | 3.15 ± 0.21 | 3.27 ± 0.28 |
| YLIIRTLGKLIPRHQSIFKSNGFF [CDKL4] | 2.74 ± 1.3 | 2.72 ± 1.8 |
| KEMFTVGCCVFAFLVGLLFVQRSG [SLC6A17] | 2.38 ± 0.66 | 3.13 ± 0.61 |
| SCKENCTCSSCLLRAPTISDLLND [EDARADD] | 4.85 ± 0.41 | 4.83 ± 0.33 |
| VKILEPKTKEVQHNCQLHRISFCA [GULP1] | 2.33 ± 0.22 | 2.25 ± 0.17 |
| LSSVPSEAQISDPFAPEPTPPTTT [SNAP91] | 5.38 ± 0.079 | 5.3 ± 0.2 |
| QENEEKEQVANKGEPLALPLDAGE [BEX1] | 5.59 ± 0.27 | 5.48 ± 0.56 |
| SSEAFHNYMNAAMVHINRALKLII [RTN3] | 2.62 ± 0.46 | 2.06 ± 0.38 |
| FLESTDSFNNELKRLCGLKVEVDM [SMARCE1] | 4.08 ± 0.23 | 4.22 ± 0.21 |
| AGLGPGSRRPLDEAVAGAEGREAP [DENND6A] | 5.39 ± 0.23 | 5.04 ± 0.39 |
| LHSEFDEQHGKKVPTVSRPYSFIE [SEC22B] | 4.04 ± 0.13 | 4.14 ± 0.24 |
| YNPPKDDGSTYKIELEGISVMVMR [GAN] | 2.14 ± 0.28 | 2.24 ± 0.22 |
| RKQRRRERWLQKQGKYSGVGLLDH [RNF180] | 3.43 ± 0.26 | 3.94 ± 0.33 |
| FIDTYSDVGRYIDHYAAIKKAWDD [FBXO3] | 2.6 ± 0.61 | 2.37 ± 0.77 |
| MALTPVVVTLWYRAPEVLLQSTYA [CDK4] | 3.04 ± 0.41 | 3.06 ± 0.45 |
| VEQGERALERRRRALQEEERAAAQ [ZBED3] | 5.5 ± 0.2 | 5.29 ± 0.38 |
| GQFVFARDAKAAMAGRLMIRKLVA [AASDHPPT] | 2.08 ± 0.43 | 2.02 ± 0.46 |
| TGIEGNWGRLLEQVGTMALWASQR [ZBED2] | 1.98 ± 0.57 | 2.48 ± 0.49 |
| AGSKVKDMAGDWHWALRVTPGLGV [SPNS1] | 2.07 ± 0.28 | 2.1 ± 0.26 |
